Results on three molecules are retold here after patent publication US20200264182A1 (J OIL MILLS, published 2020).

The labels stand for the following.
T1: Aleuria aurantia lectin (AAL), biotin-labeled (Aleuria aurantia, UniProt P18891 2-313, biotin label (sites not given))
T1 construct: Bought reagent, used as the comparative lectin
T1 sequence (looked up): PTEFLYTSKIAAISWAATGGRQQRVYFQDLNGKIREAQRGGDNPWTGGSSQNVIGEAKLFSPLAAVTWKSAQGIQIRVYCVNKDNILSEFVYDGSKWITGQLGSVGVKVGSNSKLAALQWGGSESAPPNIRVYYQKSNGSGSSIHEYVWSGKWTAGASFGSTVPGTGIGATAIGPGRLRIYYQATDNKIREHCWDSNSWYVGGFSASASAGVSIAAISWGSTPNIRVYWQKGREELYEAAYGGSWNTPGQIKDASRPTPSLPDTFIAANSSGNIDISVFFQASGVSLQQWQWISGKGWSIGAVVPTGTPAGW

B1: Pholiota squarrosa lectin (PhoSL), biotin-labeled (other)
chain: APVPVTKLVCDGDTYKCTAYLDFGDGRWVAQWDTNVFHTG
modifications: cysteine pairing not given here; also: biotin label, site not given here
notes: Lectin; also called biotin-labeled PhoSL; fucose α1→6 specific lectin
B2: fucosylated PSA (prostate specific antigen) (enzyme)
chain: not shown
modifications: N-linked sugar chain with α1→6 fucose (site not stated)
notes: also called serum fucosylated PSA

Where no end group is shown, it is not given here.

Assay [1] deals with B2. Put plainly: sandwich ELISA on serum, biotin-labeled PhoSL peptide, pH 9.6. On the technique in general: In an ELISA, binding on a coated surface is turned into a signal by an enzyme label.
For assay [2], the target named is B2. As to the kind of experiment: sandwich ELISA: PSA captured on anti-PSA antibody, biotin-lectin detected with HRP-streptavidin.
For assay [3], the target named is T1, Aleuria aurantia lectin (AAL), …. Put plainly: sandwich ELISA on serum, biotin-labeled AAL, pH 7.4.

Consider KPVPVTKLVCDGDTYKCTAKLDFGDGRWVAQWDTNVFHK (cysteine pairing not given here; also: biotin label, sites not given here) [Pholiota squarrosa lectin peptide (PhoSL peptide), biotin-labeled], for which the binding result in assay [1] is on record as “binds”. B1: the binding result in assay [2] is “binds”. Consider B2, for which the binding result in assay [3] is reported as “binds”.
